Assay results published in the RNAGym collection of RNA variant scans (doi:10.1073/pnas.2313332121).

B1: TPR t1 (parent)
chain: GACCAAUCUGCCCUCAGAGCUCGAGAACAUCUUCGGAUGCAGAGGAGGCAGGCUUCGGUGGCGCGAUAGCGCCAACGUCCUCAACCUCCAAUGCAUCCCACCACAUGAUGAUGCCUGAAGAGCCUUGGUUUUUUG

Variants of: B1
Assay: polymerase ribozyme fitness, log enrichment relative to wild type (log ratio); higher = more active; in vitro selection for triplet polymerase activity
How it was run: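 Only genotypes with ≥10 input reads and ≥1 read per output were kept after Illumina sequencing of input and output libraries. These libraries were PCR-built, transcribed mutants of each subunit of a heterodimeric triplet polymerase ribozyme, each put through one triplicate in vitro selection round with frozen incubation at −7 °C, gel excision of extended constructs, streptavidin-bead capture and RT-PCR. Fitness is a logarithmic ratio of genotype enrichment to wild-type enrichment, from inverse-variance-weighted replicate averages, with the logarithm in base 2.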

Row | Variant | polymerase ribozyme fitness (log ratio)
1 | A6U C56A | -0.282
2 | A6G C82G U87A A90U | -2.92
3 | A6U C70U C88A U129C | -1.84
4 | A6C G61A C115U | -1.31
5 | A6U G45U | -1.59
6 | A6C C82A C89A | -2.13
7 | A6G G71A C82A A111U | -4.56
8 | A6G C73A U112A G120U U130G | 0.876
9 | A6C G57C | -0.375
10 | A6C G47C G71U | -2.53
11 | A6U G48U C89A A105U | -6.02
12 | A6U C11G U55C | -0.352
13 | A6U C53U C73U | 0.296
14 | A6G A29G C72G C82G C89A G120C | -4.07
15 | A6U A105C U116C | -6.02
16 | A6U A50G G117A | -1.14
17 | A6U C31G G47A G61A A91U U112A | -7.45
18 | A6C U109C G110U C114U | -6.23
19 | A6U G57C G69A A90G | -2.65
20 | A6G C12U U30C A108G | 0.259
21 | A6U A37U C101G C123A U125G U132A | -2.11

Row | Variant | polymerase ribozyme fitness (log ratio)
22 | A6U C70U U129C | -1.04
23 | A6U A90U | -0.93
24 | A6G C76A C88G A121U G128A | -1.67
25 | A6U G10C C34A U81A U112C G120C | -3.64
26 | A6G G61U | -0.271
27 | A6U C12U C76A C115U | -2.81
28 | A6G C72U G93A | -0.751
29 | A6U A18U C76U | -2.81
30 | A6G A50G U112C | 1.56
31 | A6G C70U | -1.29
32 | A6C G58C G60U A95C | -1.05
33 | A6U A95C | -0.905
34 | A6G U14G C28U G110C C115U U125A | -6.22
35 | A6U C49U G60A C94G G113A | -3.92
36 | A6U G48U C56G C82A | -1.65
37 | A6U G61U G117A | -0.538
38 | A6U G45C C72G C101U G110C | -4.94
39 | A6U C34G C123U | -5.18
40 | A6U A103G | -4.63
41 | A6U C15U | -1.43
42 | A6G C28U | -0.918

Row | Variant | polymerase ribozyme fitness (log ratio)
43 | A6U C8U | 0.736
44 | A6U C8G | 0.868
45 | A6U G10C | -0.4
46 | A6U G10A | 0.406
47 | A6U C70A C124A | 0.175
48 | A6U C53U C88U | -0.366
49 | A6C C76U C101G G122A C124U U129A | -2.42
50 | A6U C76G C98U | -1.31
51 | A6U C20G C76U G113U | -1.29
52 | A6U G39U C53G A68G U96G | -7.34
53 | A6G C79G C104A | -4.14
54 | A6C G63A | -0.611
55 | A6G U9C C13G C89U A90U C94U A105U A121G | -2.84
56 | A6G C123A | 1.64
57 | A6U C53A C97U G113A | -1.91
58 | A6U C56A A105G | -2.46
59 | A6G U7C C12U G23U C70U C72A U87G | -6.73
60 | A6C U9A C11G A74G | -0.26
61 | A6C G35U U59C A83U C98G A121U | -4.28
62 | A6U A16U | -1.42
63 | A6U A105C | -1.94

Row | Variant | polymerase ribozyme fitness (log ratio)
64 | A6U C11U G47C C85U C114A | -4.43
65 | A6G U7C | -0.442
66 | A6U A46C C49G C82G C89U | -2.2
67 | A6U C11U G71C | -0.83
68 | A6G C13U G51U C82U C94A A111G | -3.66
69 | A6U G10A C15U A46C C53G G61U C79A C80U C115G A119G | -4.07
70 | A6U C79A G110A | -2.78
71 | A6U A29U C101A G120C U133A | -4.06
72 | A6C U9A G52A A68G U106A | -2.55
73 | A6C G58C U92G C114A U130A | -4.44
74 | A6U C22A C49U | -4.97
75 | A6U C22G A41C G71U | -3.47
76 | A6G U78C C102A C124A U130A | -1.35
77 | A6U C56U C97A | -6.51
78 | A6U G52A U116C | -1.36
79 | A6C G44C G61A C80A U112A | -4.74
80 | A6U C15G C40U G61C C79A | -6.15
81 | A6C G71C C82A U112A A118U | -0.912
82 | A6U G52A | -2.05
83 | A6U G52U | -1.52
